Measurements from the DeepSol protein solubility set.

Assay: soluble on expression in E. coli; label from the status in PepcDB or PDB records

Sequence	soluble on expression in E. coli
MARSRGSSRPISRSRPTQTRSASTMAAPVHPQQQQQPNAYSHPPAAGAQTRQPGMFAQMASTAAGVAVGSTIGHTLGAGITGMFSGSGSDSAPVEQQQQNMANTSGQTQTDQQLGRTCEIDARNFTRCLDENNGNFQICDYYLQQLKACQEAARQY	soluble
GTTKISVPVPPPDANFPPSAAPVFYNPEMELNRDINVAATAAFVERLLSKKDILREEIRYVDAFSASGIRGLRIAGEVGIHSTMNDWSHEAFELIKENIKINGLEEKAQATRRNANVLLHEQRFHIVDVDPFGTPSPYLDAAASSAYSMLSVTATDTAPLCGAHLNSGIRKYASVPLNTEYHSEMGLRVLLGACARELAKHEKGMLPLLSHVTRHYVRTYLEVLPGSRKADKTLKSMGFVAHCPRCGFRKPVYGLAVHIEKECPECGGLTKIAGPLWLGPYREPEFCNEVISELEAHPLNTKEKVRKIITFCRDELDIPMFYDQHVICKELGASATGIESLIEALRAGGFEASRTHFTGTSFKTDAPIAEIKKIILALSG	not soluble
MGSDKIHHHHHHMDRILTFDCYGTLIDTKPVFDAISNIAKNNILNSKDAVNIYVNYEDRLMYGETYIPYDKLIKQVLEYCDMELVTNVFSKSYDEIISVHKRLKPFKEVVESLEKIHKKGYELALMSNSVHDIIDYNLDALGNVFNNVFLSEDIHAYKPQLKFFKYVEERLELKQKKHCHIAKGYWWDIVPCSKLGWRKIWVNRENKKGNKCHEPYEEVHTLDEVINLI	not soluble
MYVMTQSGWLELICGCMFSGKSEELIRRVRRAQFAKQEVKVFKPTIDNRYSEDAVVSHNGNSVIAIPVATPAEMFRYISAATDVVAIDEIQFFSDDIIDVVQTLADCGYRVIAAGLDQDFRGEPFGPVPALMAIAESVTKLQAVCTVCGSPASRTQRLINGAPASYDDPVILVGASEAYEPRCRHHHEVPGKPKKRYNHPLAGHTGE	soluble
MKSEANLRGMIDIEFYYHTCEAKKYFRNEVINYLVNLKSNVTIEMTRYWTEGADVVNHLFFCNIHGIGIPNLHGVLFQVKSYRYYSGFLLSTASQSFCG	not soluble
MQRFLDSISAATQAKSPAEHETLVAMADLYAIITCVEYLERAWRANAVSDEDYTRNCSRLIAQFRATRQLVMDDVPSVISFLEEYHLAARAAMNRLQVGVPATVEHANSSDETRRRNFTAAAIQATEAFLTFRDALELGERSVDRLLPYLREILLVLGRMGAVFGTADGDATVQRERIVQWVRRLDAMHAYEQITEEDKRQLAHDVDTLYDTFRRRVGELEM	not soluble
MSLMLSHNPIVEPFALAHATIVTGDKAGTILRNMTIVVGADGRIEQVAPSIETSIPAEYHYLDGTGKIVMPGLINAHTHLFSQGKPLNPKLATPKGQRMVATFAHSPLGKPYMAATVKHNATTLLESGVTTIRTLGDVGYEVVTLRDQIDAGQILGPRILASGPLMAIPEGHGAPLIALTSGTPEEARTAVAQNLKAGVNAIKIAATGGVTDAQEIGEAGSPQMSVEQMRAICDEAHQYGVIVGAHAQSPEGVRRSLLAGVDTIEHGSVLDDELIGMFRHNPNALRGYSALIPTLSAGLPLTLLGQDVTGITDIQLENSKNVVGGMVSGARQAHEAGLMIGVGTDTGMTFVPQYATWRELELLVAYAGFSPAEALHAATAVNASILGVDAETGSLEVGKSADLLVLNANPLDDLRALEHPALVIAAGHPVWRPGPKRFADIDALLDEAYAEGHHHHHH	soluble
NEDNSFTVRANMTYAVSKVVHWDQDAVRYPYQSYSDVNYGVMRGLVALGLFQNQDEINRSPKQTYGEVRPGDIRYKDVNADGKIDDDDIVPIAHSNVPQIQYGFALEYRYKRWTISALFTGAAKVNFLYGGSGFYPFSGGEVGNILSIVNDPKNRWTPAWYSGDPSTENPNARFPRLTYGENKNNNRASTFWLADGSYLRWKSLDISYRIGTNKVLRTVGISDMNLQFVGQNLAVWDSVKLWDPGQASKNGAVYPLQRTFSLQLTATF	not soluble
PEREAVALVGTRRASPWALAFARRLARELAEAGLWVVSGLARGIDREAHLGALEAGGRTLGVLGSALDRVYPPENRPLAQRMDLLSEFPFGTGPKPEFFPRRNRLIAGLCRAVVVVEAPLDSGALITARHALELGKEVLAVPGRPTDERSLGANRLIQDGAYPVLSAEDVLSYLGMSARP	not soluble
MKGKNNMSRIIVVTSGKGGVGKTTSSAAIASGLALRGKKTAVIDFDIGLRNLDLIMGCERRVVYDFVNVINGEATLNQALIKDKRNENLFILPASQTRDKDALTKDGVQRVLNDLKEMGFDFIICDSPAGIEQGALMALYYADEAIVTTNPEVSSVRDSDRILGILDSKSMRAEQGQAPIKQHLLLTRYNPARVTQGEMLSVQDVEEILHVPLLGVIPESQAVLNASNKGVPVIFDDQSDAGQAYQDTVARLLGEQVEFRFLTEAKKGIFKRLFGG	not soluble
MSLESPELKALVDAGKLPAVEKRLPKEPLVLTPLESVGTYGGTWRTATFGGGDSEIERSIGYTRLVRWNPEWTEVIPDIAKSVEVNDNATEYTFTLREGTRWSDGEPFTADDLVWWNENVLRNTKITPAAPNWLTAGGETVKVEKLADDKVIFKFAAPNGLFLMNMATVRGSDILAAAPAHYLKQFHKDFNPDGIDALVKAAGATDWVQLFNNKIGFPGRWRDLGRPTLDAWVLTAPYNGTTQVVGERNPYYAKVDTAGNQLPYFDRITIDVMQDTQAIILKAISGEIDMQNRFIETTDARTVIVQNQEKGGYGLFIARPAWSNALLITLNQTHKNPALRAVFSNKDFRIGLSYAINREELNQLIYAGQAKPYQAAPREGTALYDEKMATQYLEYNVDLANQYLDKAGLTKHDAEGYRLGQDGKRITFAIDALTGSPIQVDALEMIQRYWRAVGIDMQPRPAERSLIFSRLQNNENDGLGWVGGGGYDFLGLLDPKWYFPHEYESSFATAWGLYYQNPKDPNAQEPSPAAKKQMDLYRQVQEAPTLEKQLAAMKELLAITRDEFYVIGTNLEPDRVGIVKTNMRNVPKVIPSTSFYMTPGPAKPETFYYQQEGHHHHHH	soluble
MNLNFIVPDINMTFGDMKFMGLNRERYVYDRENNKRTDVLESRIYNIASAVQGGQIEVTIPEYAGAKEIPPFADIELKNPKISAMATSQRDSTYANVMWKLEADDIVVKGGSSVKPAAATGGNEKKLEHHHHHH	not soluble
MNKDIETQRFKQQKKWQKYYKFRGQFFLMKKYSKRMIFDRRIKMTTKEKIEFIKQVTPHSDSEVEKIIKGMSDTSINRWYEIEKYRIDQELEEAVLTIYC	not soluble
PNRRADDNATIRVTNLSEDTRETDLQELFRPFGSISRIYLAKDKTTGQSKGFAFISFHRREDAARAIAGVSGFGYDHLILNVEWAKPSTN	soluble
MNTEEQPVTASLVAEAQRLDFLPTYFGPRLMMRGEALVYAWMRRLCERYNGAYWHYYALSDGGFYMAPDLAGRLEIEVNGNGFRGELSADAAGIVATLFALGQLAAEIADTDAADALIDRYHFLRGFAAGHPEAAAIYRAID	soluble
SHMSKAKFDKAVEIVQSLPKDGPIKPTQDEQLYFYKYFKQATVGDVNISRPGLMDFTGKAKWDAWKSVEGTSKEVAYQKYVEKLLEILKKADTEESKKYIAEIEAA	soluble
MKEALEAALREILGPGEVVALRRLPGGASKEAWAVDYRTGEALHPLFLRRAGGGVIYSKTLALAEEFRLLQVAWAHGVKVPEPLHYFPDLEGREAFLMRRLEGETIGARVVRRPELARARETLPQAMAEELAKIHALSPDEVPFLQPPSLPSWRPALKKACRDLNALGKPHPALKWGMRWLLTHPPRELPPVVVHGDFRVGNLLVNGEGLVAVLDWEFAHLGDPREDLAWPLVRAWRFGEDGKRLGGVGEVGPFLERYNALTGRDIAEEELFWWEVLGNVRWGLGALKQARRHLRGEERSVELAVLGRLASEMEYEVLHLLERYG	soluble
MNHVKKHVLWKDEYFERYYRLNPELVQKRLDKIYQAEDDLMVLISTQLFCFLQANGTLYFDGCYKTGKADNSLLCTNLALWSIELACDHFDIREERGHTTKFSEQGESWLTLFACNQFSLVPYCYPAIQRGFQSGVLKEIVPFYREQKLGILAMEIMARERGDTINWEAMQVRVDPVYLDFCQNILLSSDDELVRTGLITLCDKHLEWTDFHNSDKHCCLTGYEIQRQDLLLWPFEYQAVKNWRARQGLSTPMIEHPLMNSPMTTANCPDFSQWQRPEWFNPLVDFLAQRRPELAFLRHLFI	not soluble
GSHGMSKSPEEEHPVKAFGWAARDQSGHLSPFNFSRRATGEEDVRFKVLYCGVCHSDLHSIKNDWGFSMYPLVPGHEIVGEVTEVGSKVKKVNVGDKVGVGCLVGACHSCESCANDLENYCPKMILTYASIYHDGTITYGGYSNHMVANERYIIRFPDNMPLDGGAPLLCAGITVYSPLKYFGLDEPGKHIGIVGLGGLGHVAVKFAKAFGSKVTVISTSPSKKEEALKNFGADSFLVSRDQEQMQAAAGTLDGIIDTVSAVHPLLPLFGLLKSHGKLILVGAPEKPLELPAFSLIAGRKIVAGSGIGGMKETQEMIDFAAKHNITADIEVISTDYLNTAMERLAKNDVRYRFVIDVGNTLAATKP	soluble
AIAGSRQDPVPLSFVTLQEQRCVLSWFLGWNVAQKQRFLEDLISKAVPGKVSSLLDQLNTLQVNDRPPNIFECQLRLWTQWFDSWSEEERNAFLNCLEEKDPTFVAFFYDQVAGTAGRD	soluble
MAGEHIKVIYFDGRGRAESIRMTLVAAGVDYEDERISFQDWPKIKPTIPGGRLPAVKVTDDHGHVKWMLESLAIARYMAKKHHMMGETDEEYYSVEKLIGQAEDVEHEYHKTLMKPQEEKEKITKEILNGKVPVLFNMICESLKGSTGKLAVGDKVTLADLVLIAVIDHVTDLDKGFLTGKYPEIHKHRENLLASSPRLAKYLSNRPATPF	soluble
MGSDKIHHHHHHMAKQQFNKLIWLVDTIFRNAPVTFAEINRRWRAGDDNRSDIPLRTFHNHRQAIEEIFDINIECDKRNNTYYIADAEGMLGDKLKMWLLNSFSLNNVLQENVDMKNRIVFEEVPSGVQFMDLVIDAMRSGRVLAMEYQAYNWEHSKDVLLEPYFVKLFRHRWYLIGINREYKAFRSYSLDRIKRIALSEETFNFPRKFTPQDHFRDSFGIIRDENLLPQHTVLRTTISQAPYLRNLPLHSSQKEIAVTESYVDFELYISHTYDFIQELLSKGAAVEVLKPQSLRDKIKAEIQNMQTLYHL	not soluble
MAKGGKSPKGKKITLNVAKNCIKITFDGRKRLDLSKMGITTFPKCILRLNEIDELDLSRNMIRKIPDSISKFQNLRWLDLHSNYIDKLPESIGQMTSLLFLNVSNNRLTTNGLPVELNQLKNIRTVNLGLNHLDSVPTTLGALKELHEVGLHDNLLTSIPAGISKLPKLKKLNVKRNPFPKPDESDMFVDSIKRLENLYLVEEKDLCSSCLQKCQQARDKLNKIRSMAPSAPRKAIFSNLVSPNSTAKESQEEWSV	not soluble
MSLSSFEGKVAVITGAGSGIGRALALNLSEKRAKLALSDVDTDGLAKTVRLAQALGAQVKSDRLDVAEREAVLAHADAVVAHFGTVHQVYNNAGIAYNGNVDKSEFKDIERIIDVDFWGVVNGTKAFLPHVIASGDGHIVNISSLFGLIAVPGQSAYNAAKFAVRGFTEALRQEMLVARHPVKVTCVHPGGIKTAVARNATVADGEDQQTFAEFFDRRLALHSPEMAAKTIVNGVAKGQARVVVGLEAKAVDVLARIMGSSYQREGHHHHHH	not soluble
MSRKFPSFIVDAFTTKSFAGNPAAVCLIPEVFKDQEYLKIAAEFNLSETAFPVPIGSTDFKTCSQFSLRWFTPKTEVPLCGHATLATSHVLFNEVGNVNKEIKFDTQSGVLIAKRDEKGNVEMNFPEYDLASVKFNDTPNPLQGIFSEFEAPSFLFEVIKCVVPTEMIIESVVYSSKSRKLIVIVDPETTKFELEAVRIDCSKMLEIHDGSFVRGLAISLRPSNPMAQGFVDSSDEPYDYACRYFAPWVGIDEDPATGSAQCVMGPFWSKMLGKNELYAFQAFPTRGAQFRIRLQDDRVILNGPSVTVLRGELALN	not soluble
